Source: patent US20200040103A1
Where a chain is given by its changes, count along the chain named.

B1: 14E12 (antibody, V domains shown)
VH: EVQLVESGGGLVRPGRSLRLSCAASGFTFSDYYMAWVRQAPTKGLEWVASISYDGDTTYYRDSVKGRFTISRDNARSSLYLQMDSLRSDDTANYFCTTDGTIPAGSWFAYWGQGTLVTVSS
VL: DIQMTQSPASLSASLGETVTIECLASKNIYRNLAWYQQKPGKSPQFLISDASRLQDGVPSRFTGSDSGSQYSLKINSLQSEDVATYFCQQYHDYPYTFGAGTKLELK
B2: 8E11 (antibody, V domains shown)
VH: QEQLEESGGDLVKPEGSLTLTCTASGFSFSSSYWICWVRQAPGKGLEWIACVYGLDVNIYYASWTKGRFTISKTSSTTVTLQMTSLTAADTATYFCARGGGSADFGFDLWGPGTLVTVSS
VL: DVVMTQTASPVSAAVGGTVTIKCQASENIYSLLAWYQQKPGQPPKVLIYDASDLASGVPSRFKGSGSGTQFTLTISDLECADAATYYCQATAYGSSGNAFGGGTEVVVK
B3: 14C8 (antibody, V domains shown)
VH: EVQLVESGGGLVQPGRSLKLSCTASGFTFSDYNMAWVRQAPKGGLEWVTTISYDAGRTYYRDSVKGRFTISRDNAKRTLSLQMDSLRSEDTATYYCATGIFNYGTDYFDYWGQGVMVTVSS
VL: DIQMTQSPASLSASLGETVTIQCRASEDIYSGLAWYQQKPGKSPQLLIYGATTLHDGVPSRFSGSGSGTQYSLKISSMHSEDEGIYFCHQGLSFPYTFGAGTKLELK
B4: 12B3 (antibody, V domains shown)
VH: QSLEESGGGLVKPGGTLTLTCKASGIDFNGGGIYWVRQAPGKGLEWIASIYPDHGSVDYANWVNGRFTISLDNAQNTVFLQLTSLTVADTATYFCARESGGSYYDLWGPGTLVTVSS
VL: AYDMTQTPASVEVAVGGTVTIKCQASQSISTYLAWYQQKPGQRPNLLIYKTSTLASGVPSRFRGSGSGTQFTLTISGVECADAATYYCQQGYSGSSVENTFGGGTEVVVK
B5: 1D10 (antibody, V domains shown)
VH: B4 VH with K22T, I26F, S49Y, V57A, N61T, L82M, S99T, Y103W
VL: AYDMTQTPVSVEAAVGGTVTIKCQASQSISSYLAWYQQKPGQPPKLLIYKASTLASGVSSRFKGSGSGTEFTLTISDLECADAATYYCQQGYSGSNVENTFGGGTEVVVK
B6: 8B7 (antibody, V domains shown)
VH: QSVKESEGGLFKPTDNLTLTCTVSGFSLSNYGVTWVRQAPGNGLEYIGFIGSSGSAYYASWAKSRSTITRNTNLNTVTLKMTSLTAADTATYFCARDDVGGGKSLDIWGPGTLVTVSS
VL: NIVMTQTPASVEVAVGGTVTIKCQASQSIGSYLSWYQQKPGQPPKLLIYDASNLASGVPSRFKGSGSGTQFTLSISDLECADAATYYCHQDYTSNNVDNTFGGGTEVVIK
B7: 9H5 (antibody, V domains shown)
VH: B6 VH with N30S, T34S, S53G, S55F, L113V, S118V
VL: NIVMTQTPASVEAAVGGTVTINCQASQSISSYLSWYQQKSGQRPKLLIFSASTLASGVPSRFTGSGSGTQFTLTISDLQCADAATYYCHQDYTSSNVDNTFGGGTEVVVK
B8: 10C8 (antibody, V domains shown)
VH: B6 VH with N30S, T34S, S53G, S55F, K103R, L113V
VL: NIVMTQTPASVEVAMGGTVIIKCQASQSISTYLSWYQQKPGQPPKLLIYSASTLASGVSSRFEGSGSGTQFTLTISGVQCADAATYYCHQDYTSNNVDNTFGGGTEVVVK
B9: 9F2 (antibody, V domains shown)
VH: B6 VH with N30S, T34S, S53G, A56P
VL: NIVMTQTPASVEVAVGGTVIIKCQASQSISNYLSWYHQKSGQRPRLLIYSASTLASGVPSRFKGSGSGTQFTLTISDLECADAATYYCHQDYTSNSVDNTFGGGTEVVVK
B10: 10H3 (antibody, V domains shown)
VH: QSVKESEGGLIKPTDTLTLTCTVSGFSLSTFAINWVRQAPGNGLEWIGAIGRGGSAYYASWAKSRSTITKNTNLNTVTLKMTRPTAADTATYFCARENAGSGWGELDIWGPGTLVTVSS
VL: AYEMTQTPASVEVAVGGTVTINCQASESISSDLAWYQQKPGQRPKLLIYAASTLASGVPSRFKGSGSGTEFTLSISGVQCADAATYYCQQGYTWNNVDNVFGGGTEVVVK

biological target: recombinant human KLK5 (human) (UniProt Q9Y337); experiment: cell-based or functional assay
Sequence (Q9Y337 67-293): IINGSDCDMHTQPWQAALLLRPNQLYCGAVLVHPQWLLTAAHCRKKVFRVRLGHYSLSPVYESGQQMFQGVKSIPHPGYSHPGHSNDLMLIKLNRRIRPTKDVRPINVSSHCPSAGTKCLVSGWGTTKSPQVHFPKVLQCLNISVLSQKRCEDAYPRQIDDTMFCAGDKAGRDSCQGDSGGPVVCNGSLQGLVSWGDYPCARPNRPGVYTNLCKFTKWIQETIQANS

inhibition of human KLK5 (screening) | Binder
< 90% | B1
< 90% | B2
< 90% | B3

biological target: recombinant human KLK5 (human), Q9Y337; experiment: cell-based or functional assay
Sequence (Q9Y337 67-293): as above

inhibition of human KLK5 (screening) | Binder
< 50% | B4
< 50% | B5

biological target: recombinant human KLK5 (human) (UniProt Q9Y337); experiment: pro-KLK7 LC/MS assay, 5 nM KLK5

IC50 | Binder
1.29 nM | B6
1.68 nM | B7
1.8 nM | B8
1.26 nM | B9
0.97 nM | B10

biological target: recombinant human KLK5 (human) (UniProt Q9Y337); experiment: pro-KLK7 coupled assay, 5 nM KLK5

IC50 | Binder
0.92 nM | B6
0.87 nM | B7
1.16 nM | B8
0.93 nM | B9
1.17 nM | B10

biological target: recombinant human KLK5 (human) (UniProt Q9Y337); experiment: pro-KLK1 LC/MS assay, 0.5 nM KLK5

IC50 | Binder
0.09 nM | B6
0.19 nM | B7
0.14 nM | B8
0.14 nM | B9
0.08 nM | B10

biological target: recombinant human KLK5 (human) (UniProt Q9Y337); experiment: Kiapp assay curve, 0.125 nM KLK5, Z-VPR-pNA

IC50 (read off the curve) | Binder
0.2 nM | B6
0.2 nM | B7
0.2 nM | B8
0.2 nM | B9
0.3 nM | B10

biological target: recombinant human KLK5 (human) (UniProt Q9Y337); experiment: Kiapp assay curve, 0.250 nM KLK5, Z-VPR-pNA

IC50 (read off the curve) | Binder
0.2 nM | B6
0.2 nM | B7
0.2 nM | B8
0.2 nM | B9
0.3 nM | B10

biological target: recombinant human KLK5 (human) (UniProt Q9Y337); experiment: Kiapp assay curve, 0.500 nM KLK5, Z-VPR-pNA

IC50 (read off the curve) | Binder
0.2 nM | B6
0.3 nM | B7
0.2 nM | B8
0.3 nM | B9
0.4 nM | B10

biological target: recombinant human KLK5 (human) (UniProt Q9Y337); experiment: Kiapp assay curve, 0.063 nM KLK5, Z-VPR-pNA

IC50 (read off the curve) | Binder
0.2 nM | B6
0.2 nM | B7
0.2 nM | B8
0.2 nM | B9
0.2 nM | B10

biological target: recombinant human KLK5 (human) (UniProt Q9Y337); experiment: pro-KLK1 coupled assay, 0.5 nM KLK5

IC50 | Binder
0.125 nM | B6
0.139 nM | B7
0.151 nM | B8
0.137 nM | B9
0.122 nM | B10

biological target: recombinant human KLK5 (human) (UniProt Q9Y337); experiment: Kiapp, KLK5 0.5-0.0625 nM, Z-VPR-pNA

Ki | Binder
0.32 nM | B6
0.425 nM | B7
0.265 nM | B8
0.43 nM | B9
0.51 nM | B10

biological target: recombinant human KLK5 (human) (UniProt Q9Y337); experiment: KLK5 direct activity assay, 5 nM KLK5, Boc-VPR-AMC

IC50 (read off the curve) | Binder
1 to 2 nM | B6
0.8 nM | B7
0.9 nM | B8
1 to 2 nM | B9
1 nM | B10

biological target: recombinant human KLK5 (human) (UniProt Q9Y337); experiment: direct activity assay, 5 nM KLK5, Boc-VPR-AMC

IC50 | Binder
1.1 nM | B6
1.08 nM | B7
0.89 nM | B8
1.01 nM | B9
1.09 nM | B10

biological target: recombinant human KLK5 (human) (UniProt Q9Y337); experiment: pro-KLK1 coupled assay, 0.5 nM KLK5, 31.25 nM pro-KLK1, PFR-AMC

IC50 (read off the curve) | Binder
0.1 nM | B6
0.1 to 0.2 nM | B7
0.1 to 0.2 nM | B8
0.1 to 0.2 nM | B9
0.1 nM | B10

biological target: recombinant human KLK5 (human) (UniProt Q9Y337); experiment: pro-KLK7 coupled assay, 5 nM KLK5, 125 nM pro-KLK7, suc-LLVY-AMC

IC50 (read off the curve) | Binder
1 nM | B6
0.8 nM | B7
1 nM | B8
0.9 nM | B9
1 nM | B10

biological target: recombinant human KLK5 (human) (UniProt Q9Y337); experiment: SPR BIAcore T200, antibody captured by anti-human Fc, human KLK5 as analyte, 37 C

Kd | koff | kon | Binder
0.193 nM | 0.000137 s⁻¹ | 705000 M⁻¹ s⁻¹ | B7

biological target: recombinant human KLK5 (human) (UniProt Q9Y337); experiment: pro-KLK7 LC/MS assay, 5 nM KLK5, 15 nM pro-KLK7, nM

IC50 | Binder
1.29 nM | B6
1.68 nM | B7
1.8 nM | B8
1.26 nM | B9
0.968 nM | B10

biological target: recombinant human KLK5 (human) (UniProt Q9Y337); experiment: array SPR imaging (IBIS MX96), antibody amine-coupled, human KLK5 injected 0-300 nM, 25 C

koff | Binder
0.000547 s⁻¹ | B6
0.000367 s⁻¹ | B7
6.16e-05 s⁻¹ | B8
0.000339 s⁻¹ | B9
0.000589 s⁻¹ | B10
0.000414 s⁻¹ | B1
0.000202 s⁻¹ | B2
0.000376 s⁻¹ | B3

biological target: recombinant human KLK5 (human) (UniProt Q9Y337); experiment: Kiapp as the y-intercept of the line of IC50 (nM) versus KLK5 (nM), Z-VPR-pNA

Ki | Binder
0.264 nM | B6
0.402 nM | B7
0.277 nM | B8
0.377 nM | B9
0.393 nM | B10

biological target: recombinant human KLK5 (human) (UniProt Q9Y337); experiment: pro-KLK1 LC/MS assay, 0.5 nM KLK5, 300 nM pro-KLK1; box column 2 of 3; no unit printed, nM per text

IC50 | Binder
0.132 nM | B6
0.343 nM | B7
0.225 nM | B8
0.137 nM | B9
0.116 nM | B10

biological target: recombinant human KLK5 (human) (UniProt Q9Y337); experiment: pro-KLK1 LC/MS assay, 0.5 nM KLK5, 300 nM pro-KLK1; box column 3 of 3; no unit printed, nM per text

IC50 | Binder
0.106 nM | B6
0.102 nM | B7
0.149 nM | B8
0.18 nM | B9
0.13 nM | B10

biological target: recombinant human KLK5 (human) (UniProt Q9Y337); experiment: pro-KLK1 LC/MS assay, 0.5 nM KLK5, 300 nM pro-KLK1; box column 1 of 3; no unit printed, nM per text

IC50 | Binder
0.0473 nM | B6
0.138 nM | B7
0.0587 nM | B8
0.108 nM | B9
0.00485 nM | B10
